In this data set the test system is Saccharomyces cerevisiae. The data set can be described thus: protein stability index of tFT-peptide fusion (C-terminal peptide) (PSI (0-1 scale)); higher = more stable (slower turnover). The note with it: temperature: 30 C. As for the experimental part: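 MPS profiling in S. cerevisiae of the yeast C-terminome library: the last 12 aa of each annotated ORF are fused to the C-terminus of a sfGFP-mCherry timer, after a GGGS linker. Cells are FACS-sorted into 8 mCherry/sfGFP bins and deep-sequenced. PSI runs from 0 (unstable) to 1 (stable); wild type and das1Δ backgrounds, two technical replicates each.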

Setting [1] is: genetic background: das1 deletion.

± gives the standard deviation of the averaged measurements.

Take KDEPVKAHNKLK [SAS5 C-terminal 12 aa]: the protein stability index worked out at 0.693 ± 0.011 under setting [1] and 0.654 ± 0.023 (genetic background: wild type).
Consider KDETPEDNLEDK [VBA3 C-terminal 12 aa], for which the protein stability index stood at 0.6896 ± 0.00088 under setting [1] and 0.653 ± 0.017 (genetic background: wild type).
KDNNISSYGSII [YPL162C C-terminal 12 aa] came in with a protein stability index under setting [1] of 0.693 ± 0.037 and a protein stability index (genetic background: wild type) of 0.668 ± 0.011.
The matching figures for KEANPIKITPQP [MDL2 C-terminal 12 aa]: 0.682 ± 0.009 and 0.708 ± 0.0083.
The matching figures for KELEPVPPVSKS [OMS1 C-terminal 12 aa]: 0.7006 ± 0.007 and 0.671 ± 0.01.
For KEMWITGKIVED [IML1 C-terminal 12 aa], in that order: 0.672 ± 0.021 and 0.6639 ± 0.0055.
Consider KGCYKLCKNLLE [KEI1 C-terminal 12 aa], for which the protein stability index is 0.686 ± 0.013 under setting [1] and 0.696 ± 0.043 (genetic background: wild type).
The matching figures for KGDGKFWSSKKD [OM45 C-terminal 12 aa]: 0.709 ± 0.0022 and 0.6744 ± 0.0029.
The matching figures for KGFQFGLGLAFL [SAM50 C-terminal 12 aa]: 0.736 ± 0.034 and 0.69 ± 0.019.
The matching figures for KGHVHSPRHNND [YOR379C C-terminal 12 aa]: 0.7103 ± 0.0065 and 0.713 ± 0.035.
For KGTCGCGESFMV [ISA1 C-terminal 12 aa], the protein stability index under setting [1] stood at 0.71 ± 0.0094 and the protein stability index (genetic background: wild type) came to 0.69 ± 0.045.
As to KHIDYRHAPGNI [RRN10 C-terminal 12 aa], the protein stability index was found to be 0.6875 ± 0.0066 under setting [1] and 0.69587 ± 0.00057 (genetic background: wild type).
Regarding KHKNILSFNNNT [YDR543C C-terminal 12 aa], the protein stability index amounted to 0.687 ± 0.02 under setting [1] and 0.709 ± 0.041 (genetic background: wild type).
Take KHPRPFRQEHRC [YLR162W C-terminal 12 aa]: the protein stability index came out at 0.6986 ± 0.0027 under setting [1] and 0.6577 ± 0.0057 (genetic background: wild type).
For KHQFLTKAKRFF [FET3 C-terminal 12 aa], in that order: 0.693 ± 0.0079 and 0.7186 ± 0.0014.
For KHVSGKILGFVY [RPS22A C-terminal 12 aa], the protein stability index is, setting by setting: under setting [1], 0.631 ± 0.045; (genetic background: wild type) 0.63 ± 0.02.
Sequence KIPKTYSELSCL [DUN1 C-terminal 12 aa] came in with a protein stability index under setting [1] of 0.693 ± 0.042 and a protein stability index (genetic background: wild type) of 0.669 ± 0.037.
Take KKLHEEYFGEDK [CRS1 C-terminal 12 aa]: the protein stability index is 0.673 ± 0.031 under setting [1] and 0.646 ± 0.032 (genetic background: wild type).
For KKMEARGQSIWV [RPN9 C-terminal 12 aa], in that order: 0.713 ± 0.0075 and 0.6728 ± 0.0014.
For KKNGYIYFYTRC [UBP14 C-terminal 12 aa], in that order: 0.69 ± 0.0087 and 0.6625 ± 0.0026.
The matching figures for KKQKVVPLPTDI [SMM1 C-terminal 12 aa]: 0.6919 ± 0.0007 and 0.654 ± 0.015.
As to KKSKPRANKLTI [ECM2 C-terminal 12 aa], the protein stability index under setting [1] was 0.713 ± 0.02 and the protein stability index (genetic background: wild type) was found to be 0.696 ± 0.017.
Take KKYKFKLKFIKN [RNY1 C-terminal 12 aa]: the protein stability index is 0.7118 ± 0.006 under setting [1] and 0.642 ± 0.02 (genetic background: wild type).
Regarding KLDLPNVFHKKG [CHS2 C-terminal 12 aa], the protein stability index is, setting by setting: under setting [1], 0.713 ± 0.027; (genetic background: wild type) 0.706 ± 0.037.
The matching figures for KLMVEEINLDID [FZO1 C-terminal 12 aa]: 0.7048 ± 0.0045 and 0.747 ± 0.092.
As to KLRNSNNTRAED [AVO2 C-terminal 12 aa], the protein stability index came to 0.67 ± 0.0067 under setting [1] and 0.672 ± 0.011 (genetic background: wild type).
The matching figures for KLTSTVTLNLLY [YGR107W C-terminal 12 aa]: 0.692 ± 0.019 and 0.697 ± 0.029.
As for KLYILKHLGSKQ [RRG9 C-terminal 12 aa], the protein stability index under setting [1] came to 0.681 ± 0.037 and the protein stability index (genetic background: wild type) is 0.685 ± 0.019.
For KMVLSHMKEKKD [YGL140C C-terminal 12 aa], in that order: 0.688 ± 0.011 and 0.682 ± 0.017.
The matching figures for KNEDSEVEDDLI [CUS2 C-terminal 12 aa]: 0.703 ± 0.042 and 0.67 ± 0.0098.
For KNGKVDPLKNFK [DBP9 C-terminal 12 aa], in that order: 0.701 ± 0.015 and 0.684 ± 0.026.
With KNSGEKLVAVLN [YCR102C C-terminal 12 aa], the protein stability index runs as follows: under setting [1], 0.6723 ± 0.001; (genetic background: wild type) 0.666 ± 0.025.
KPDVERVYKENT [FAA4 C-terminal 12 aa] registered a protein stability index under setting [1] of 0.701 ± 0.025 and a protein stability index (genetic background: wild type) of 0.665 ± 0.011.
Take KPEFVDIINSRN [TPI1 C-terminal 12 aa]: the protein stability index under setting [1] was 0.7145 ± 0.0052 and the protein stability index (genetic background: wild type) worked out at 0.691 ± 0.026.
For the sequence KPLSKPAPDLDY [CWC25 C-terminal 12 aa], the protein stability index is, setting by setting: under setting [1], 0.66 ± 0.024; (genetic background: wild type) 0.676 ± 0.0075.
For KPRKKAKALPKT [RTT109 C-terminal 12 aa], in that order: 0.689 ± 0.032 and 0.737 ± 0.014.
In the case of KPRWYRIWNFWC [GAP1 C-terminal 12 aa], the protein stability index is 0.803 ± 0.017 under setting [1] and 0.419 ± 0.024 (genetic background: wild type).
Consider KQIDVFNGPKRV [MIG2 C-terminal 12 aa], for which the protein stability index was found to be 0.713 ± 0.0091 under setting [1] and 0.7313 ± 0.0019 (genetic background: wild type).
The matching figures for KQNIPRKPNVDI [BNS1 C-terminal 12 aa]: 0.6875 ± 0.0057 and 0.677 ± 0.018.
As to KRDIVFAASLYL [SKI2 C-terminal 12 aa], the protein stability index is, setting by setting: under setting [1], 0.6855 ± 0.0061; (genetic background: wild type) 0.739 ± 0.12.
For the sequence KRDKLKKNCVIM [YGL082W C-terminal 12 aa], the protein stability index reads like this: under setting [1], 0.74 ± 0.016; (genetic background: wild type) 0.698 ± 0.034.
Consider “KREKTMRNSMLP [YIR036W-A C-terminal 12 aa]”, for which the protein stability index is 0.684 ± 0.0091 under setting [1] and 0.736 ± 0.076 (genetic background: wild type).
The matching figures for KRLTSRLNKKHK [SPN1 C-terminal 12 aa]: 0.6937 ± 0.0067 and 0.69 ± 0.046.
For KRSLTLPVGMKI [AIM44 C-terminal 12 aa], in that order: 0.683 ± 0.026 and 0.658 ± 0.02.
For KRYTVKKALAKA [RPL14A C-terminal 12 aa], in that order: 0.6258 ± 0.0061 and 0.627 ± 0.013.
In the case of KSADPDAMDTTE [RVB2 C-terminal 12 aa], the protein stability index under setting [1] worked out at 0.702 ± 0.016 and the protein stability index (genetic background: wild type) is 0.695 ± 0.021.
The matching figures for KSAKATKASQEL [HTA1 C-terminal 12 aa]: 0.691 ± 0.011 and 0.675 ± 0.045.
For KSEIDTLKQDQK [TYE7 C-terminal 12 aa], in that order: 0.656 ± 0.011 and 0.6659 ± 0.0018.
The matching figures for KTATTLPGRRFV [LUC7 C-terminal 12 aa]: 0.6923 ± 0.0011 and 0.704 ± 0.017.
Take KVHRKKVPGCTI [YGR011W C-terminal 12 aa]: the protein stability index reads like this: under setting [1], 0.697 ± 0.015; (genetic background: wild type) 0.686 ± 0.029.
As to KVIFKDRPLPIM [CTF8 C-terminal 12 aa], the protein stability index came to 0.643 ± 0.032 under setting [1] and 0.611 ± 0.012 (genetic background: wild type).
KVYDELKKQGLV [PRP9 C-terminal 12 aa]: the protein stability index came to 0.693 ± 0.017 under setting [1] and 0.676 ± 0.0062 (genetic background: wild type).
The matching figures for KYNSQKRATTPA [COQ4 C-terminal 12 aa]: 0.712 ± 0.027 and 0.6698 ± 0.0039.
Turning to LAFRAHTMPNAP [ATO3 C-terminal 12 aa], the protein stability index is, setting by setting: under setting [1], 0.699 ± 0.0097; (genetic background: wild type) 0.694 ± 0.033.
With LATWDKQGNLKY [SRN2 C-terminal 12 aa], the protein stability index came to 0.724 ± 0.012 under setting [1] and 0.696 ± 0.026 (genetic background: wild type).
As for LCLLESLDCLAK [PMT7 C-terminal 12 aa], the protein stability index by setting is: under setting [1], 0.6692 ± 0.0024; (genetic background: wild type) 0.68 ± 0.017.
With LCPVFFTWTNLR [YSR3 C-terminal 12 aa], the protein stability index reads like this: under setting [1], 0.656 ± 0.008; (genetic background: wild type) 0.656 ± 0.034.
On to LDKEMADYFEKK [YRA1 C-terminal 12 aa], for which the protein stability index was 0.693 ± 0.013 under setting [1] and 0.706 ± 0.035 (genetic background: wild type).
For LEDHTPPEDKPN [QCR10 C-terminal 12 aa], in that order: 0.718 ± 0.021 and 0.695 ± 0.0076.
The matching figures for LEEFLVRGTNNQ [ATP25 C-terminal 12 aa]: 0.711 ± 0.018 and 0.663 ± 0.012.
The matching figures for LEEPYKPQRQRC [YPL088W C-terminal 12 aa]: 0.6798 ± 0.0049 and 0.718 ± 0.0087.
Take LFTCTDPNDTIE [MMS4 C-terminal 12 aa]: the protein stability index is, setting by setting: under setting [1], 0.721 ± 0.027; (genetic background: wild type) 0.72 ± 0.03.
Consider LFVTDGSLLLDL [EDC3 C-terminal 12 aa], for which the protein stability index is, setting by setting: under setting [1], 0.703 ± 0.014; (genetic background: wild type) 0.685 ± 0.032.
For “LGMINTVVSLDR [YBR221W-A C-terminal 12 aa]”, in that order: 0.691 ± 0.022 and 0.672 ± 0.04.
The matching figures for LIAEILLARNLI [HOM2 C-terminal 12 aa]: 0.71 ± 0.0084 and 0.662 ± 0.007.
The matching figures for LIGFGNQVSKAL [BUD25 C-terminal 12 aa]: 0.703 ± 0.03 and 0.723 ± 0.027.
As for “LISCCCCCFRRC [YNL097W-A C-terminal 12 aa]”, the protein stability index reads like this: under setting [1], 0.6974 ± 0.004; (genetic background: wild type) 0.669 ± 0.016.

These data come from the supplement of paper PMC10724198.
